Molecular target: T1, bovine serum albumin (Bos taurus, UniProt P02769)
T1 construct: also called BSA
Assay: ELISA

T1 sequence (P02769 25-607): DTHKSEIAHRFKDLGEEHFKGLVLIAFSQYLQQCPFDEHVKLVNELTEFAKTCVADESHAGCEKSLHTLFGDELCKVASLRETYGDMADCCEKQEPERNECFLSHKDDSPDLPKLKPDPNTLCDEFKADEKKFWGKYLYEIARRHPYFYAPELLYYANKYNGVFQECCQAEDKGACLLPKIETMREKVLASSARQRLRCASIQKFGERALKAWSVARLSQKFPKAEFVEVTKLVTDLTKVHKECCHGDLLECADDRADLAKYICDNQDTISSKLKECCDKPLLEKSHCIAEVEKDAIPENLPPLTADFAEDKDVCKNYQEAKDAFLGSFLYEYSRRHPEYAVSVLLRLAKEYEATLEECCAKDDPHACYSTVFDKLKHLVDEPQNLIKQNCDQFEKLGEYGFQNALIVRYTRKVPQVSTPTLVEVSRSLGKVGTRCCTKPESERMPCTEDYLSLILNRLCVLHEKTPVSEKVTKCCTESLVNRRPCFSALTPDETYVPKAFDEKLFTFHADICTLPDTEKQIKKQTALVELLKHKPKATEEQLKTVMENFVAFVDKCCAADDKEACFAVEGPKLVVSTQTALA

B1: D5 nanobody (camel VHH) (VHH)
VHH: AWQLVESGGGSVQPGGSLTLTCQASKSTFSTSGMRWERQAQGKGVEFVADISSDSTRKWYSDSVKGRFTISRSNWWRTVTLQMNDLKPEDTARYYCKDLESHHLRGQGTQVTVSS
notes: also called single domain antibody D5
binding result: no binding
